Data as given in paper PMC12207370, “Macrocyclic Peptide Probes for Immunomodulatory Protein CD59: Potent Modulators of Bacterial Toxin Activity and Antibody‐Dependent Cytotoxicity” (Angewandte Chemie (International Ed. in English), 2025).

Target: T1, biotinylated CD59 (Homo sapiens, UniProt P13987)
T1 construct: Recombinant soluble human CD59 with an additional C-terminal cysteine residue
T1 sequence (P13987 26-102 limits assumed): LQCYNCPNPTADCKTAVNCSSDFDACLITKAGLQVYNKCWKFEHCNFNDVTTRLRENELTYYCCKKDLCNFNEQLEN
Assay: mRNA-display cyclic peptide screen against CD59-biotin, NGS abundance after 6th selection round
Details: for Percentage Seq I: counts normalised by total counts of sample Seq I; for Percentage Seq I / Percentage Seq II: percentage of the pool; for Percentage Seq I / Percentage Seq II / Percentage Average / Percentage of the pool, averaged across the two sequencing samples / Percentage of the pool, Seq I / Percentage of the pool, Seq II: sheet R6; for Percentage Seq II: counts normalised by total counts of sample Seq II; for Percentage Average: percentage of the pool averaged across the two sequencing samples; for Counts Seq I / Counts Seq II: raw NGS counts of peptide sequence; for Counts Seq I: sequencing sample Seq I; for Counts Seq I / Counts Seq II / Counts (raw counts for peptide sequence), Seq I / Counts (raw counts for peptide sequence), Seq II: sheet R6 (6th selection round); for Counts Seq II: sequencing sample Seq II; for Counts (raw counts for peptide sequence), Seq I: NGS sample Seq I; for Counts (raw counts for peptide sequence), Seq II: NGS sample Seq II; for Percentage of the pool, averaged across the two sequencing samples: average of Seq I and Seq II; for Percentage of the pool, Seq I: counts normalised by total counts of NGS sample Seq I; for Percentage of the pool, Seq II: counts normalised by total counts of NGS sample Seq II
Excerpt: To discover novel non‐protein CD59 ligands, we screened a library of 10^12 cyclic peptides against CD59 using mRNA‐display (Figure 2a).^[ [23], [24], [25], [26], [27], [28], [29] ^] Briefly, an mRNA library was designed in which the start codon was reprogrammed from Met to N‐chloroacetyl‐D‐Tyr (ClAc‐D‐Tyr), followed by 10–12 randomly encoded natural amino acids, a Cys residue, a (GlySer)3 linker, and a stop codon. […] The total library diversity was 1.51 × 10^13 molecules, comprising 5.02 × 10^12 molecules of each macrocycle size, covering a subset of the maximum theoretical diversity of this library design. Following in vitro translation, ClAc‐D‐Tyr spontaneously reacts with either the C‐terminal Cys or a Cys in the random region, yielding macrocyclic thioether peptides. Hits from the library were identified through iterative enrichment and amplification against biotinylated CD59, then immobilized on streptavidin beads. Fifteen hit sequences (CP‐01 to CP‐15), enriched with abundance >1% relative to the total pool of recovered binders after the 6th round of selection, were synthesized by solid phase peptide synthesis (SPPS), without the (Gly‐Ser)3 linker.
Figure 2 Discovery of macrocyclic peptide ligands with nanomolar CD59 affinity using mRNA display. a) The selection process. PCR = polymerase chain reaction, SPPS = solid phase peptide synthesis. b) Table showing details of the peptides with nanomolar affinity for CD59 as well as the binding affinity of the lead inhibitor of CD59, rILYd4. K D values are presented as the average of three technical replicates ± SEM. Structures of all peptides and SPR sensograms are presented in Figures S1 and S2. *indicates the presented sequences are the variable regions of these cyclic peptides; each is flanked by an N‐terminal Ac‐D‐Tyr cyclized to a C‐terminal Cys. R6 abundance (%) is defined as (the given number of NGS reads for a given sequence/the total number of reads of unique sequences observed in NGS)*100 following the 6th selection round. c) Representative sensogram of the interaction between CP‐06 with immobilized CD59 by SPR analysis. Inset showing the equilibrium binding curve of CP‐06 to CD‐59. Below in the box are the association and dissociation rate constants of CP‐06. Concentrations are plotted in descending order from 800‐3.1 nM in line with their position on the legend. […] (nM)'; the box with Kon/Koff has no label of its own / ILYd4: the label may be cut off at the left edge (possibly 'rILYd4') / CP-02, KD: 15.3 ± 0.2, small print, 3 or 8 uncertain / CP-03, KD: 23.4 ± 0.7, small print / CP-06, KD: 11.3 ± 0.0, small print, 3 or 8 uncertain / CP-13, KD: 10.8 ± 0.7, small print, 8 or 6 uncertain / ILYd4, KD: 48.3 ± 1.1, small print, 8 and 3 uncertain
The mRNA-display cyclic peptide screen was performed against CD59-biotin by T.E.M: DNA templates for transcription were generated by PCR in a similar manner to that previously described.^2 RNA oligonucleotides were transcribed from the DNA templates using T7 RNA polymerase and purified by phenol/chloroform extraction followed by ethanol precipitation. Oligonucleotide concentrations were determined spectroscopically by absorbance at 260 nm. In the first selection round a 1:1:1 molar ratio of NNK10/NNK11/NNK12 was used. The procedure for selection rounds 2-6 is described below; round 1 was conducted at twice the scale.
RNA encoding for the peptide library ligated to a puromycin-modified oligonucleotide was […] (final [RNA] = 2.5 µM) using a customised PURE express kit (lacking release factor 1 and methionine, supplemented with […] initiator tRNA acylated with N-chloroacetyl-d-tyrosine prepared as previously described)^3 in a final volume of 5.6 µL for 1 hour at 37 °C.
This mixture was incubated at 42 °C for 1 hour before being diluted to 500 µL with PBS (10 mM Na-PO4 pH 7.4, 2.7 mM KCl, 137 mM NaCl) and 0.5 µL taken for subsequent use in qPCR. […]

Sequence | Percentage Seq I | Percentage Seq II | Percentage Average | Counts Seq I | Counts Seq II | Counts (raw counts for peptide sequence), Seq I | Counts (raw counts for peptide sequence), Seq II | Percentage of the pool, averaged across the two sequencing samples | Percentage of the pool, Seq I | Percentage of the pool, Seq II
LGGRGCFRPCSAAAAAAARTGGG | 0.050% | 0.042% | 0.046% | 220 | 18 |  |  |  |  | 
SSALERIGKCP | 0.227% | 0.211% | 0.219% | 991 | 91 |  |  |  |  | 
VASGGRYWSRA | 0.103% | 0.139% | 0.121% | 449 | 60 |  |  |  |  | 
AVRGSSFYVWG | 0.098% | 0.107% | 0.102% | 427 | 46 |  |  |  |  | 
HAFGNRSFTRG |  |  |  |  |  | 82 | 5 | 0.015% | 0.019% | 0.012%
SAWGNRQIQYY | 7.073% | 7.046% | 7.059% | 30945 | 3036 |  |  |  |  | 
ISRGDARYTWG | 0.019% | 0.023% | 0.021% | 83 | 10 |  |  |  |  | 
FARGDWNHQFY |  |  |  |  |  | 120 | 3 | 0.017% | 0.027% | 0.007%
HAFGSRDIAYY |  |  |  |  |  | 52 | 5 | 0.012% | 0.012% | 0.012%
NYVERLCTSG |  |  |  |  |  | 68 | 5 | 0.014% | 0.016% | 0.012%
RYGGRTFIYAWS | 0.025% | 0.026% | 0.025% | 111 | 11 |  |  |  |  | 
SCSEWRRGTRS |  |  |  |  |  | 43 | 4 | 0.010% | 0.010% | 0.009%
FVTGNSDHTRG |  |  |  |  |  | 52 | 4 | 0.011% | 0.012% | 0.009%
CFAHRITDPNTQ | 0.027% | 0.014% | 0.020% | 117 | 6 |  |  |  |  | 
TLSTNRDLIRLPAAAAAAARTGGG |  |  |  |  |  | 63 | 7 | 0.015% | 0.014% | 0.016%
CFVGRLTLTST |  |  |  |  |  | 65 | 3 | 0.011% | 0.015% | 0.007%
CFAHRITDPDTQ | 0.023% | 0.019% | 0.021% | 100 | 8 |  |  |  |  | 
CFSNRISGPAV | 0.197% | 0.214% | 0.205% | 864 | 92 |  |  |  |  | 
YVRGDLYSVLG |  |  |  |  |  | 40 | 5 | 0.010% | 0.009% | 0.012%
NSCPDWVRGSRT | 0.229% | 0.262% | 0.246% | 1002 | 113 |  |  |  |  | 
GRYNECHFITS |  |  |  |  |  | 59 | 6 | 0.014% | 0.013% | 0.014%
CFSRRVTYPHQV |  |  |  |  |  | 31 | 8 | 0.013% | 0.007% | 0.019%
LVRGDLYSVLG |  |  |  |  |  | 85 | 7 | 0.018% | 0.019% | 0.016%
FIRGNSTSVPF |  |  |  |  |  | 46 | 4 | 0.010% | 0.011% | 0.009%
